# Reference: the nanobody polyreactivity screen of Harvey et al. (2022)
# Test: yeast display, Sf9 membrane polyspecificity reagent, FACS + sequencing; frameworks hold sequencing errors
# Outline: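 After 36–48 hours of galactose induction, yeast (Saccharomyces cerevisiae BJ5465) displaying a synthetic nanobody library were stained at 4 °C for 1 hour with 10% biotinylated, detergent-solubilized Sf9 membrane reagent. Streptavidin microbeads enriched the stained cells before FACS sorting into low and high (top ~1%) gates on anti-HA and streptavidin fluorescence. Each clone's polyreactivity label reflects its gate of origin.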
row,Sequence,polyreactivity (PSR sort gate)
1,QVQLVESGGGLVQAGGSLRLSCAASGNILEYNAMGWYRQAPGKERELVAAISRGGITNYADSVKGRFTISRDNAKNTVYLQMNSLKPEDTAVYYCATRWIGYTSQWDHFEYDYWGQGTQVTVSS,low polyreactivity
2,QVQLVESGGGLVQAGGSLRLSCAASGNILEYNAMGWYRQAPGKEREMVAAISRGGITNYADSVKGRFTISRDNAKNTVYLQMNCLKPEDTAVYYCATRWIGYTSQWDHFEYDYWGQGTQVTVSS,low polyreactivity
3,QVQLVESGGGLVQAGGSLRLSCAASGNILIGNVMGWYRQAPGKERELVAAITSGGDTYYADSVKGRFTISRDNAKNTVYLQMNSLKPEDTAVYYCAADRPGQPKYEYWGQGTQVTVSS,low polyreactivity
4,QVQLVESGGGLVQAGGSLRLSCAASGNILLFNAMGWYRQAPGKERELVATINQSGGRTYYADSVKGRFTISRDNAKNTVYLQMNSLKPEDTAVYYCAATYVYWTWGYDYWGQGTLVTVSS,low polyreactivity
5,QVQLVESGGGLVQAGGSLRLSCAASGNILRGYAMGWYRQAPGKERELVAAINRGGGSTYYADSVKGRFTISRDNAKNTVYLQMNSLKPEDTAVYYCAARYPHRGYTFDYWGQGTQVTVSS,low polyreactivity
6,QVQLVESGGGLVQAGGSLRLSCAASGNILRSYAMGWYRQAPGKERELVAAISADGSGTYYADSVKGRFTISRDNAKNTVYLQMNSLKPEDTAVYYCAAERYFWWYYDPENYWGQGTQVTVSS,high polyreactivity
7,QVQLVESGGGLVQAGGSLRLSCAASGNIVDYYGMGWYIQAPGKERELVAAINVSGDSTYYADSVKGRFTISRDNAKNTVYLQMNSLKPEDTAVYYCAADYGWGSGFEYDYWGQGTQVTVSS,low polyreactivity
8,QVQLVESGGGLVQAGGSLRLSCAASGNNFYRNAMGWSRQAPGKERELVAAINSGSSTKYADSVKGRFTISRDNAKNTVYLQMNSLKPEDTAVYYCAKRRYTAIWYGYWGQGSQVTVSS,high polyreactivity
9,QVQLVESGGGLVQAGGSLRLSCAASGNNLLGYAMGWYRQAPGKEREWVAAISSSGGRTYYADSVKGRFTISRDNAKNTVYLQMNSLKPEDTAVYYCAAYTYSAGGYWGQGTQVTVSS,high polyreactivity
10,QVQLVESGGGLVQAGGSLRLSCAASGNTFAGNAKGCYRQAPGKERELVAAISRSGVTTRYADSVKGRFTISRDNAKNTVYLQMNSLKPEDTAVYYCNADPRLRQTRDYWGQGTQVTVSS,high polyreactivity
11,QVQLVESGGGLVQAGGSLRLSCAASGNTFAGNAMGWYRPAPGKERELVAAISRSGVTTRYADSVKGRVTISRDNAKHTVYLQMNSLKPEDTAVYYCNADPRLRQTRDYWGQGTQVTVSS,high polyreactivity
12,QVQLVESGGGLVQAGGSLRLSCAASGNTFAGNAMGWYRQATGKERELVAAISWSGTRTYYADSVKGRFTISRDNAKNTVYLQMNSLKPEDTAVYYCAKLSTNKEYYWGQGTQVTVSS,high polyreactivity
13,QVQLVESGGGLVQAGGSLRLSCAASGNTFAGYAMGWYRQAPGKEMEWVAAISTRGGITYYADSVKGRFTISRDNAKNTVYLQMNCLKPEDTAVYYCAAEFYYPWTYCSCDGRRVYYWGQGTQVTVSS,high polyreactivity
14,QVQLVESGGGLVQAGGSLRLSCAASGNTFAHYVMGWYRQAPGKERELVASITSGGSTNYADSVKGRFTISRDNAKNTVYLQMNSLKPEDTAVYYCAVSLSYWYEAFTTRIDYYYWGQGTQVTVSS,high polyreactivity
15,QVQLVESGGGLVQAGGSLRLSCAASGNTFANYAMGWYRQAPGKERELVAAITSNGGSTYYADSVKGRFTISRDNAKNTVYLQMNSLKPEDTAVYYCAADAAYYSGYDYWGQGTQVTVSS,low polyreactivity
16,QVQLVESGGGLVQAGGSLRLSCAASGNTFASYVMGWYRQAPGNERELVAAISWSGGSTYYADSVKGRFTISRDNAKNTVYLQMNSLKPEDTAVYYCNAKRNVRYGYWGQGTQVTVSS,high polyreactivity
17,QVQLVESGGGLVQAGGSLRLSCAASGNTFATYALGWYRQAPGKERELVAAITWSGGSTYYADSVKGRFTISRDNAKNTVYLQMNSLKPEDTAVYYCAADYLYYAIPAYYWDTGYDYWGQGTQVTVSS,low polyreactivity
18,QVQLVESGGGLVQAGGSLRLSCAASGNTFAVNAMGWYRQAPGKERELVAAISKRGGRTYYADSVKGRFTISRDNAKNTVYLQMNSLKPEDTAVYYCAADLSNSMDYWGQGTQVTVSS,high polyreactivity
19,QVQLVESGGGLVQAGGSLRLSCAASGNTFAYNVMGWYRQAPGKERELVAAISRSGGSTYYADSVKGRFTISRDNAKNTVYLQMNSLKPEDTAVYYCAAVVRRVRPEGSYNRWGHDYWGQGTQVTVSS,high polyreactivity
20,QVQLVESGGGLVQAGGSLRLSCAASGNTFDIYAMGWYRQAPGKERELVAAISRRGGSTYYADSVKGRFTISRDNAKNTVYLQMNSLKPEDTAVYYCNAKHKITHSSSDYWGQGTQVTVSS,high polyreactivity
21,QVQLVESGGGLVQAGGSLRLSCAASGNTFFKNAMGWYRQAPGKERELVAAISKRGGSTYYADSVKGRFTISRDNAKNTVYLQMNSLIPEDTAVYYCAADTFGVYASTYDYWGQGTQVTVSS,high polyreactivity
22,QVQLVESGGGLVQAGGSLRLSCAASGNTFFVYAMGWYRQAPGKERELVADINWSTGSTYYADFVKGRFTISRDNAKNTVYLQMNSLKPEDTAVYYCAAEAYYYVIFHGSWYTDDYWGQGTQVTVSS,low polyreactivity

row,Sequence,polyreactivity (PSR sort gate)
1,QVQLVESGGGLVQAGGSLRLSCAASGNTFGDNAMGWYRQAPGKERELVAAISTGGNTYYADSVKGRFTISRDNAKNTVYLQMNSLKPEDTAVYYCNAKWIPDTLFGIHETEGDYWGQGTQVTVSS,low polyreactivity
2,QVQLVESGGGLVQAGGSLRLSCAASGNTFGINAMGWYRQAPGKERELVASISFTGSSTYYADSVKGRFTISRDNAKNTVYLQMNSLKPEDTAVYYCNRDRITLYEYDYWGQGTQVTVSS,low polyreactivity
3,QVQLVESGGGLVQAGGSLRLSCAASGNTFGLYAMGWYRQAPGKDRELVATITWSVSTYADSEKGRFTISRDNAKITVYLEMNSLKPEDTAVYFCAATTGPWYWRYVYWGQGTQVTVSS,high polyreactivity
4,QVQLVESGGGLVQAGGSLRLSCAASGNTFGNYGMGWYRQAPGKEREFVAAITSRGTSTYYADSVKGRFTISRDNAKYTVYLQMNSLKPEDTAVYYCNARPRYKYPRYDYWGQGTQVTVSS,high polyreactivity
5,QVQLVESGGGLVQAGGSLRLSCAASGNTFGQYTMGWYRQAPGKERELVAAISWDDSSTNYADSVKGRFTISRDNAKNTVYLQMNSLIPEDTAVYYCAKETELGTQYPYEYDYWGQGTQVTVSS,low polyreactivity
6,QVQLVESGGGLVQAGGSLRLSCAASGNTFGRYAMGWYRQAPGKERELVASIRGSSVRTFYADSVKGRFTISRDNAKNTVYLQMNSLKPEDTAVYYCAAEVYRYYATGYGYWGQGTQVTVSS,high polyreactivity
7,QVQLVESGGGLVQAGGSLRLSCAASGNTFGVYAMGWYRQAPGKERELVAAIRYRGGSTYYADSVKGRFTISRDKAKNTVYLQMTSLKPEETAVYYCAAVYYVQYVGRYYYWGQGTQVTVSS,high polyreactivity
8,QVQLVESGGGLVQAGGSLRLSCAASGNTFHYYTMGWYRQAPGKERELVAAITRSAGRTYYADSVKGRFTISRDNAKTTVYLQMNSLKPEDTAVYYCATERERTMGYWGQGTQVTVSS,high polyreactivity
9,QVQLVESGGGLVQAGGSLRLSCAASGNTFLWYAMGWYRQAPGKEREFVAAIRRSGASTYYADSVKGRFTISRDNAKNTVYLQMNSLKPEDTAVYYCAAKFVYWSGAVYTRYDYWGQGTQVTVSS,high polyreactivity
10,QVQLVESGGGLVQAGGSLRLSCAASGNTFLWYAMGWYRQAPGKERELGAAISRGGGSTYYADSVKGRFTISRDNAKNTVYLQMNSLKPEDTAVYYCAARTYYSARSIHYREFEYWGQGTQVTVSS,high polyreactivity
11,QVQLVESGGGLVQAGGSLRLSCAASGNTFNNNAMGWYRQAPGKERELVAAISGSGGSTYYADSVKGRFTISRDNAKNTVYLQMNSLKPEDTAVYYCAVRLVHGGKRYGYWGQGTQVTVSS,high polyreactivity
12,QVQLVESGGGLVQAGGSLRLSCAASGNTFNPNAMGWYRQAPGKERELVAVIRFRGGSTYYADSVKGRFTISRDNAKNTVYLQMNSLKPEDTAVYYCAADFLYYYLRYYYWGQGTQVTVSS,high polyreactivity
13,QVQLVESGGGLVQAGGSLRLSCAASGNTFQSYAMGRYRQAPGKEREFVAAIRQSGGSTYYADSVKGRFTISRDTAKYTVYLQMNSLKPEATAVYYCAAYFTPRKYKPYDYWGLGTQVTVSS,high polyreactivity
14,QVQLVESGGGLVQAGGSLRLSCAASGNTFRNYAMGWYRQAPGKERELVAAISWTGARTYYADSVKGRFTISRDNAKNTVYLQMNSLKPEDTAVYYCARPLQWWSPSGTVDYGYWGQGTQVTVSS,high polyreactivity
15,QVQLVESGGGLVQAGGSLRLSCAASGNTFSAYAMGWYRQAPGKERELVAAISSRGGSTYYADSVKGRFTISRDNAKNTVYLQMNSLKPEDTAVYYCAAGYRGVANRKWIYYYWGQGTQVTVSS,high polyreactivity
16,QVQLVESGGGLVQAGGSLRLSCAASGNTFSDYAMGWYRQAPGKERELVAAISSSGVRTYYADSVKVRFTISRDNAKNTVYLHMISLNPEDTAVYYCAADNYYYRFVAAMDYWGQGTQVTVSS,high polyreactivity
17,QVQLVESGGGLVQAGGSLRLSCAASGNTFSSYAMGWYRQAPGKVRELVAAISRRGGSTYYADSVKRRFTISRDHAKTTVYLQMNSLKPEDTAVYYCAADGTGFRSLRYDYWGQGTQVTVSS,high polyreactivity
18,QVQLVESGGGLVQAGGSLRLSCAASGNTFSWYAMGWYRQAPGKERELVAVIRDGSTYYADSVKGRFTISRDNAKNTVYLQMNRLKPEDTAVYYCRYDIWVWWSGAYDYWGQGTQVTVSS,low polyreactivity
19,QVQLVESGGGLVQAGGSLRLSCAASGNTFTFNAMGWYRQAPGKERELVAAINRGDSTNYADSVKGRFTISRDNAKNTVYLQMNSLKPEDTAVYYCAAGTLYWNYNRYDLYYYWGQGTQVTVSS,high polyreactivity
20,QVQLVESGGGLVQAGGSLRLSCAASGNTFTFYAMGWYRQAPGTERELVASITGRGGSTYYADSVKGRFTISRDNAKNTVYLQMNSLKPEDTAVYYCNADYNSFRYRPPTTRDYWGQGTQVTVSS,low polyreactivity
21,QVQLVESGGGLVQAGGSLRLSCAASGNTFTKYAMGWYRQAPGKERELVADITIGGSTYYADSVKGRFTISRDNAKNTVYLQMNSLKPEDTAVYYCNADVVVQYYFTYYRVFTYDYWGQGTQVTVSS,low polyreactivity
